Measured values reported in patent US20150259384A1.

How the values were obtained:
[1] = molecular target: Phosphorylated human Rb construct (residues 53-787, delta245-267, delta582-642, S780A) saturated with the … peptide (human) (UniProt P06400); experiment: isothermal titration calorimetry; E2F (~1 mM) titrated into ~50 uM phosphorylated Rb first saturated with the … peptide
[2] = molecular target: Human Rb construct (residues 53-787, delta245-267, delta582-642, S780A), phosphorylated with recombinant Cdk (human) (UniProt P06400); experiment: isothermal titration calorimetry; E2F (~1 mM) titrated into ~50 uM phosphorylated Rb
[3] = molecular target: Human Rb construct (residues 53-787, delta245-267, delta582-642, S780A), un-phosphorylated (human) (UniProt P06400); experiment: isothermal titration calorimetry; E2F (~1 mM) titrated into ~50 uM un-phosphorylated Rb
Chain of Human Rb construct (residues 53-787, delta245-267, delta582-642, S780A), un-phosphorylated (human) (P06400 other isoform, or with tags, fused parts or gaps S780A S780A limits assumed): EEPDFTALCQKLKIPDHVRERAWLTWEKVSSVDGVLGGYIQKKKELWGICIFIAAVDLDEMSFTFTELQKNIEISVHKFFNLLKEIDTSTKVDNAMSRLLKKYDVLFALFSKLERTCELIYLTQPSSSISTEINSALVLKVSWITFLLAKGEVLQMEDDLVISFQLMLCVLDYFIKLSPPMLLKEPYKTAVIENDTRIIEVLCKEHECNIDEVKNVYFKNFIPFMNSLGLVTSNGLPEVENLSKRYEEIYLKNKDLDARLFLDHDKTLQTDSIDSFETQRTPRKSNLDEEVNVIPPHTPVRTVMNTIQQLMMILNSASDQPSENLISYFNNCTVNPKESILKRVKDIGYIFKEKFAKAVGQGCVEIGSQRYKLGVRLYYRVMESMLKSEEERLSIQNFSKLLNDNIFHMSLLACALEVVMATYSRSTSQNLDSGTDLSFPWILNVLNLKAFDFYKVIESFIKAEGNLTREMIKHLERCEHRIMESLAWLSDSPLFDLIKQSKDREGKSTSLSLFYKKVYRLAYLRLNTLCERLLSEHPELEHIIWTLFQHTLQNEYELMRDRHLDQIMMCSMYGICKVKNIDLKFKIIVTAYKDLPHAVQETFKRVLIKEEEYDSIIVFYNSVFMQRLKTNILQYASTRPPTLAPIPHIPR

Chain of Phosphorylated human Rb construct (residues 53-787, delta245-267, delta582-642, S780A) saturated with the … peptide (human) (P06400 other isoform, or with tags, fused parts or gaps S780A S780A limits assumed): as above
Chain of Human Rb construct (residues 53-787, delta245-267, delta582-642, S780A), phosphorylated with recombinant Cdk (human) (P06400 other isoform, or with tags, fused parts or gaps S780A S780A limits assumed): as above

In the case of “Human E2F1 transactivation domain (residues 380-727) (from UniProt Q01094 380-437)”, the Kd [1] is reported as 700 nM, the Kd [2] is reported as 3000 nM and the Kd [3] is reported as 100 nM.
